Assay results published in article PMC9239997, “Structural basis for mitoguardin-2 mediated lipid transport at ER-mitochondrial membrane contact sites” (Nature Communications, 2022).
Residue numbers refer to the chain shown, from its start. In names and notes the source's numbering stands. [ ]: non-standard residue; d: D form. pS = N[C@@H](COP(=O)(O)O)C(=O)O

T1: zMiga2 (Danio rerio, UniProt Q5BLE2)
T1 construct: gene miga2; LD targeting domain, residues 310-568; E. coli BL21(DE3); His6 tag cleaved by TEV
T1 sequence (Q5BLE2 310-568): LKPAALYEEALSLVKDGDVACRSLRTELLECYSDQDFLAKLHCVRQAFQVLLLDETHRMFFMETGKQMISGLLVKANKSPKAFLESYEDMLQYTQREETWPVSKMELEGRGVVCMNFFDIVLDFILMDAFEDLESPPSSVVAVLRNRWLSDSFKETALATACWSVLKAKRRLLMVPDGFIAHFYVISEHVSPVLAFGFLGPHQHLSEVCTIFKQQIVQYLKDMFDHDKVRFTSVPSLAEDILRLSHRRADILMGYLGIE

T2: phosphorylated FFAT motif peptide of mouse MIGA2 (residues 289-298) (mouse, SMILES …)
T2 construct: also called mMIGA2^pFFAT; source: synthetic peptide, purified by HPLC
T2 peptide: Ac-SED[pS]FF[pS]ATE-NH2

B1: mouse MIGA2 middle domain, residues 161-300 (domain or fragment, UniProt Q8BK03 161-300, looked up)
chain: GMEESVPTTDGSAESLYVQGMELFEEALQKWEQALSVGQRGDGGSTPTPGDSLQNPDTASEALSEPESQRREFAEKLESLLHRAYHLQEEFGSTFPSDSMLLDLERTLMLPLTEGSLRLRADDEDSLTSEDSFFSATEIF
notes: Oligomer of unstated size by SEC; also called central MIGA2 domain; source: E. coli BL21 (DE3), purified (Ni2+-chelated HiTrap, tag cleaved by TEV, size exclusion chromatography)
B2: MSP domain of mouse VAPB (residues 1-125) K43L/K45L (domain or fragment, UniProt Q9QY76 1-125, looked up)
chain: MAKVEQVLSLEPQHELKFRGPFTDVVTTNLKLGNPTDRNVCFLVLTTVPRRYCVRPNSGVIDAGASLNVSVMLQPFDYDPNEKSKHKFMVQSMFAPPDTSDMEAVWKEAKPEDLMDSKLRCVFEL
notes: VAPB, Mus musculus, MSP domain, residues 1-125, with K43L and K45L; also called mVAPB K43L/K45L
B3: MSP domain of mouse VAPB (residues 1-125) K87L/K118L (domain or fragment, UniProt Q9QY76 1-125, looked up)
chain: B2 chain with L43K, L45K, K87L, K118L
notes: VAPB, Mus musculus, MSP domain, residues 1-125, with K87L and K118L; also called mVAPB K87L/K118L
B4: mouse MIGA2 residues 161-570 (domain or fragment, UniProt Q8BK03 161-570, looked up)
chain: GMEESVPTTDGSAESLYVQGMELFEEALQKWEQALSVGQRGDGGSTPTPGDSLQNPDTASEALSEPESQRREFAEKLESLLHRAYHLQEEFGSTFPSDSMLLDLERTLMLPLTEGSLRLRADDEDSLTSEDSFFSATEIFESLQIGEYPLPLSRPAAAYEEALQLVKEGRVPCRTLRTELLGCYSDQDFLAKLHCVRQAFEGLLEERSNQIFFGEVGRQMVTGLMTKAEKSPKGFLESYEEMLSYALRPETWATTRLELEGRGVACMSFFDIVLDFILMDAFEDLENPPSSVLAVLRNRWLSDSFKETALATACWSVLKAKRRLLMVPDGFISHFYSVSEHVSPVLAFGFLGPKPQLSEVCAFFKHQIVQYLRDMFDLDNVRYTSVPALAEDILQLSRRRSEILLGYLGA
notes: Oligomer of unstated size by SEC; source: E. coli BL21 (DE3), purified (Ni2+-chelated HiTrap, tag cleaved by TEV, size exclusion chromatography)

Legend:
zMiga2 = target: T1, zMiga2; assay: FRET lipid transfer between liposomes; type: biochemical; conditions: labelled compound; 100 nM protein, pH 7.0, room temperature; transport, not chemical turnover
[1] = target: the molecule itself; assay: SEC; Superdex 200 increase 10/300 GL, 25 mM Tris-HCl pH 7.5, 150 mM NaCl, 5 mM DTT; proteins injected at 2–4 mg/ml; elution compared with molecular mass standards
[2] = target: T2, phosphorylated FFAT motif peptide of …; assay: ITC; mVAPB (wild type or mutant) in the syringe, mMIGA2^275-570 or mMIGA2^pFFAT in the cell; Microcal ITC200, 25 °C, 25 mM Tris-HCl pH 7.5, 150 mM NaCl, 4 mM β-mercaptoethanol; 20 injections of 2 μl; 1:1 binding model; conditions: both partners purified

Molecule	FRET lipid transfer between liposomes (zMiga2)	binding result [1]	stoichiometry N [2]
CCCCCCCCCCCCCCCC(=O)OC[C@H](COP(=O)(O)O)OC(=O)CCCCCCCCCCCNc1ccc([N+](=O)[O-])c2nonc12 [NBD-PA, 1-palmitoyl-2-{12-[(7-nitro-2-1,3-benzoxadiazol-4-yl)amino]dodecanoyl}-sn-glycero-3-phosphate]	zMiga2 transfers not only PS, but also PE, PC, and PA	–	–
CCCCCCCCCCCCCCCC(=O)OC[C@H](COP(=O)(O)OC[C@H](N)C(=O)O)OC(=O)CCCCCCCCCCCNc1ccc([N+](=O)[O-])c2nonc12 [NBD-PS, 1-palmitoyl-2-{12-[(7-nitro-2-1,3-benzoxadiazol-4-yl)amino]dodecanoyl}-sn-glycero-3-phosphoserine]	zMiga2 transferred PS more rapidly than other phospholipids	–	–
B1	–	binds	–
B2	–	–	1.04 ± 0.027
B3	–	–	0.698 ± 0.071
B4	–	binds	–
